# Measured values taken from patent publication US12502562B2, “Human iPSC-derived brain organoids and uses thereof” (CITY OF HOPE, priority 2020, dated 2025).
# B1: 62-11: Mouse monoclonal gH-specific HCMV neutralizing antibody raised against the envelope PC by vaccination (antibody, V domains shown)
# VH: QVQLQQPGAELVRPGASVKLSCKASGYTFTSYWMNWVKQRPGQGLEWIGMIDPSDSETHYNQMFKDKATLTVDKSSSTAYMQLSSLTSEDSAVYYCSNGYSSFAYWGQGTLVTVSV
# VL: DVQMTQTTSSLSASLGDRVTISCSASQGISNYLNWYQQKPDGTVKLLIYDTSSLHSGVPSRFSGSGSGTDYSLTISNLEPEDIATYYCQQYSKLPYTFGGGTKLEIK
# B2: 1B2: Mouse monoclonal anti-CMV PC neutralizing antibody that targets the UL128/130/131A subunits of the PC (antibody, V domains shown)
# VH: EVQLVESGGVLVKPGGSLKLSCAASGFTFSDYYMYWVRQTPEKRLEWVATISDDGNYTNYPDSVKGRFTISRDNAKNNLYLQMSSLKSEDTAMYYCARGWLLPVFAYWGQGTLVTVSA
# VL: DIVLTQSPATLSVTPGDSVSLSCRASQSIGNNLHWYQQKSHESPRLLIKYTSQSISGIPSRFSGSGSGTDFTLNINSVETEDFGVYFCQQSNRWPWTFGGGTKLEIK
# Key:
# [1] = system: hiPSC-derived brain organoids; assay: MEA recording of hiPSC-derived brain organoids with neuronal blockers; type: cell-based, human; settings: uninfected brain organoids, blocker 10 μM applied immediately before recording
# Procedure: (§1) Microelectrode Arrays (MEA). Brain organoids at day 45 of differentiation were partially dissociated and seeded onto 12-well transparent MEA plates at three brain organoids per well. Brain organoids were cultured in BrainPhys medium, including 1×B27, 1×N2, 20 ng/ml GDNF, 20 ng/ml BDNF, 500 μg/ml Dibutyryl-cAMP, 1× Glutamax, and 1× NEAA. MEA recordings were performed at 37° C. in a Maestro MEA system with AxIS software using a bandwidth with a filter for 10 Hz to 2.5 kHz cutoff frequencies. Spike detection was performed using an adaptive threshold set to 5.5 times of the standard deviation of the estimated noise on each electrode. For recordings, following a 5-minute resting time in the Maestro instrument, each plate was recorded for 10 minutes to calculate the spike rate per well. When a recording of 5 spikes over the length of 1 minute (5 spikes per minute) was obtained, the electrode was considered active. Individual electrode bursts were identified using an adaptive Poisson surprise algorithm, while network bursts were identified for each well using a non-adaptive algorithm requiring a minimum of 10 spikes with a maximum inter-spike interval of 100 ms. Multielectrode data analysis was performed using the Axion Biosystems NeuralMetrics Tool. Synchrony index was calculated by NeuralMetric Tool with synchrony window set as 20 ms. […]
# HCMV TB40/E [2] = assay: Receptor-specific siRNA treatment of brain organoids followed by TB40/E infection; type: cell-based, Human cytomegalovirus; settings: for GFP fluorescence of siRNA-treated infected brain organoids / growth kinetics of siRNA-treated infected brain organoids: siRNA for 4 days, then GFP-labeled TB40/E, up to 20 days post infection, compared to control siRNA; for susceptibility of brain organoids to TB40/E: siRNA-mediated knockdown, summary statement
# Procedure: (§2) HCMV infection of brain organoids. Brain organoids at day 45 of differentiation were seeded in 24-well plates and exposed to 5×10^5 pfu/ml of HCMV virus for 24 hours. Following infection, 1 ml medium was replaced, and each organoid was placed in a single well for the duration of the experiment. At different time points post infection, each organoid was evaluated for GFP fluorescence intensity and organoid size in diameter using the same microscopy setting during each experiment.
# RNA interference. Oligonucleotides for siRNA-mediated RNA interference were synthesized by […]. For RNA interference in brain organoids, four brain organoids with similar size were seeded in ultralow 24-well plates (one organoid per well) and transfected with siRNA using siLentFect. After 96 hours incubation, each organoid was infected with TB40/E at 5×10^5 pfu/ml. Medium was changed the following day. Brain organoids were cultured for 20 days on shaker with continuous medium change every 3-4 days.
# HCMV TB40/E [3] = assay: HCMV TB40/E infection of hiPSC-derived brain organoids in the presence of NAbs (GFP fluorescence intensity, organoid size); type: cell-based, Human cytomegalovirus; settings: for GFP fluorescence intensity of infected brain organoids / brain organoid growth kinetics (relative organoid size): GFP-labeled TB40/E, organoids at day 45 of differentiation, NAb 3.2-2000 ng/ml, up to 30 days post infection; for GFP fluorescence intensity of infected brain organoids / brain organoid growth kinetics (relative organoid size) / brain organoid size: compared to IgG control; for brain organoid size: TB40/E, 80-2000 ng/ml antibody; for prevention of HCMV infection of human brain organoids: summary statement
# Procedure: as §2
# (§3) Brain organoid treatment with NAbs. 1B2 and 62-11 NAbs at final concentrations ranging from 3.2 ng/ml to 4000 ng/ml were incubated with 5×10^5 pfu/ml of HCMV for 1 hour at 37° C. and then transferred to brain organoid-containing wells. Normal mouse IgG was used as a control at the concentration of 2000 ng/ml. For proliferation assay, brain organoids were incubated with 10 μM BrdU for 2 hours and fixed in 4% paraformaldehyde (PFA) for 1 hour, followed by immunostaining.
# (§4) Images were obtained with a Carl Zeiss LSM700 confocal microscope or Nikon Eclipse TE-2000-S microscope. Cortical layer thicknesses, brain organoid size and GFP fluorescence intensity of brain organoids were measured by Image J. For measuring the layer thickness, small rectangles were drawn to ensure two opposite sides to align with both layer marker dashed lines.
# [4] = system: HCMV infection of fibroblasts; settings: cited from earlier work
# [5] = system: HCMV infection of epithelial cells; settings: cited from earlier work
# HCMV strain TR = assay: HCMV TR infection of hiPSC-derived brain organoids in the presence of NAb; type: cell-based, Human cytomegalovirus; settings: GFP-labeled TR, IMR90 iPSC-derived organoids at day 45 of differentiation
# Procedure: as §2, §3, §4
# HCMV TB40/E [6] = assay: Cortical layer structure of TB40/E-infected brain organoids by layer marker immunostaining; type: cell-based, Human cytomegalovirus; settings: NAb 2000 ng/ml, compared to IgG control
# Procedure: as §3
# Immunostaining. Cells on coverslip were fixed with 4% PFA in PBS for 15 minutes at room temperature. Brain organoids were fixed with 4% PFA for 1 hour and submerged in 30% sucrose overnight. The samples were embedded in OCT and sectioned at a thickness of 14 or 20 μm using Leica CM3050S. Cells or brain organoid sections were permeabilized and blocked with blocking solution (1×PBS containing 0.1% Triton X-100 and 5% normal donkey serum) for 1 hour. […]
# as §4
# HCMV TB40/E [7] = assay: MEA recording of neural network activity in TB40/E-infected brain organoids; type: cell-based, Human cytomegalovirus; settings: 4000 ng/ml NAb, MEA recording 2 weeks post infection
# Procedure: as §1
molecule,measurement,setting,value
"N#Cc1cc2nc([O-])c([O-])nc2cc1[N+](=O)[O-].[Na+].[Na+] [CNQX, CNQX disodium salt]","spontaneous, synchronized burst and spikes of the neuronal network (MEA)",[1],could be quenched
"EGFR-specific siRNA: siRNA specific for EGFR, sense SEQ ID NO: 1, antisense SEQ ID NO: 2 (sense GACGGCGUCCGCAAGUGUA; antisense UACACUUGCGGACGCCGUCUU; listed as RNA, chemistry not given here)",GFP fluorescence of siRNA-treated infected brain organoids,HCMV TB40/E [2],no or very low GFP fluorescence
same,growth kinetics of siRNA-treated infected brain organoids,HCMV TB40/E [2],substantially higher growth kinetics
same,susceptibility of brain organoids to TB40/E,HCMV TB40/E [2],completely abrogated
"ITGA3-specific siRNA: siRNA specific for integrin α3, sense SEQ ID NO: 5, antisense SEQ ID NO: 6 (sense GCUACAUGAUUCAGCGCAA; antisense UUGCGCUGAAUCAUGUAGCUG; listed as RNA, chemistry not given here)",GFP fluorescence of siRNA-treated infected brain organoids,HCMV TB40/E [2],similar
same,growth kinetics of siRNA-treated infected brain organoids,HCMV TB40/E [2],similar
"ITGA5-specific siRNA: siRNA specific for integrin α5 (Dharmacon), sense SEQ ID NO: 7, antisense SEQ ID NO: 8 (sense GGGAACCUCACUUACGGCU; antisense AGCCGUAAGUGAGGUUCCCUU; listed as RNA, chemistry not given here) [reference compound]",GFP fluorescence of siRNA-treated infected brain organoids,HCMV TB40/E [2],similar
same,growth kinetics of siRNA-treated infected brain organoids,HCMV TB40/E [2],similar
"PDGFRα-specific siRNA: siRNA specific for PDGFRα, sense SEQ ID NO: 3, antisense SEQ ID NO: 4 (sense CCACCUUCAUCAAGAGAGA; antisense UCUCUCUUGAUGAAGGUGGAA; listed as RNA, chemistry not given here)",GFP fluorescence of siRNA-treated infected brain organoids,HCMV TB40/E [2],no or very low GFP fluorescence
same,growth kinetics of siRNA-treated infected brain organoids,HCMV TB40/E [2],substantially higher growth kinetics
same,susceptibility of brain organoids to TB40/E,HCMV TB40/E [2],completely abrogated
B1,GFP fluorescence intensity of infected brain organoids,HCMV TB40/E [3],substantially reduced GFP fluorescence intensity
same,brain organoid growth kinetics (relative organoid size),HCMV TB40/E [3],markedly increased growth kinetics in a dose-dependent manner
same,brain organoid size,HCMV TB40/E [3],substantially larger
same,prevention of HCMV infection of human brain organoids,HCMV TB40/E [3],can potently prevent
same,prevention of HCMV infection of fibroblasts,[4],can potently interfere
same,inhibition of HCMV infection of epithelial cells,[5],can potently interfere
B2,GFP fluorescence intensity of infected brain organoids,HCMV TB40/E [3],substantially reduced GFP fluorescence intensity
same,brain organoid growth kinetics (relative organoid size),HCMV TB40/E [3],markedly increased growth kinetics in a dose-dependent manner
same,brain organoid size,HCMV TB40/E [3],substantially larger
same,prevention of HCMV infection of human brain organoids,HCMV TB40/E [3],can potently prevent
same,infection of brain organoids by TR and its effect on brain organoid growth,HCMV strain TR,could be prevented
same,thickness of the TBR2+SVZ and the CTIP2+CP layers,HCMV TB40/E [6],much thicker
same,neural network activity (MEA profile),HCMV TB40/E [7],largely prevented neural network impairment
same,prevention of HCMV infection of fibroblasts,[4],unable to prevent
same,inhibition of HCMV infection of epithelial cells,[5],exceptionally high potency
